Consider 2 substances from PMC6039492.

Assay [1] concerns the target GABAB receptor (heterodimer of GABAB1 and GABAB2), untagged and SNAP-tagged subunits in three combinations (rat) (UniProt Q9Z0U4). Put plainly: two-photon scanning number and brightness (sN&B) fluctuation microscopy; live cultured rat hippocampal neurons, GABAB1 and/or GABAB2 SNAP-tagged and labelled with Alexa488, corrected for the theoretical number of fluorophores per heterodimer; across expression levels.

The target in assay [2] is mGlu2 mutated to be locked in the inactive conformation (HA-ST-mGlu2-515NGlyc-L698C-L729C-F756D), cross-linked with CuP (rat) (UniProt P31421). Put plainly: two-photon scanning number and brightness (sN&B) fluctuation microscopy; live cultured rat hippocampal neurons, SNAP-tag labelled with Alexa488, incubated with 150 μM CuP for the last 10 min of labelling, imaged in the absence of ligand; 90-600 subunits/Veff; apparent stoichiometry (lower with CuP).

Chain of GABAB receptor (heterodimer of GABAB1 and GABAB2), untagged and SNAP-tagged subunits in three combinations (Q9Z0U4 20-960): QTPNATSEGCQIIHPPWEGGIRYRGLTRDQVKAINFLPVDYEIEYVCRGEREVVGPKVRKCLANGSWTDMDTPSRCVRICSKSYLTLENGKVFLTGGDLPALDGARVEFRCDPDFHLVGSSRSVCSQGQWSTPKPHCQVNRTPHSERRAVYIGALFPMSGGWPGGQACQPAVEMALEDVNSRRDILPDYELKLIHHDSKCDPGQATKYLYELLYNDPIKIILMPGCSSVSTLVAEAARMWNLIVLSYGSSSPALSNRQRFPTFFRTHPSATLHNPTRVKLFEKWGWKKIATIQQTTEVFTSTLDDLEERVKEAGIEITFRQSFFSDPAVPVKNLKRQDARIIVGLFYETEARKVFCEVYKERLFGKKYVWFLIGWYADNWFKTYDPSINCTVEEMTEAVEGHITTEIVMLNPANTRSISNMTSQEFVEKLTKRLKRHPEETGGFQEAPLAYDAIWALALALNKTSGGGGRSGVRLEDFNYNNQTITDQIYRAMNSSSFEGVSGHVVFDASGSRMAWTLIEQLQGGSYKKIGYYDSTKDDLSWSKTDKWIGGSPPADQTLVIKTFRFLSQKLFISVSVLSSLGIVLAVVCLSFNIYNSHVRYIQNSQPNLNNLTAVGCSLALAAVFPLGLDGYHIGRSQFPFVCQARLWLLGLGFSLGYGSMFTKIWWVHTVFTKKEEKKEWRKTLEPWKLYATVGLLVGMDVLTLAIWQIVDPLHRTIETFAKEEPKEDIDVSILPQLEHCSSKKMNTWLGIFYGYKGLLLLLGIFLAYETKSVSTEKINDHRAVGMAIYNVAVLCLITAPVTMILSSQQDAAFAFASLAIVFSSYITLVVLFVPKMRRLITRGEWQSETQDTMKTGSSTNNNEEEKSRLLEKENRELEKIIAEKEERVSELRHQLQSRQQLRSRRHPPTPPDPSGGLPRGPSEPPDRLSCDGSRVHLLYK
Chain of GABAB receptor (heterodimer of GABAB1 and GABAB2), untagged and SNAP-tagged subunits in three combinations (O88871 41-940): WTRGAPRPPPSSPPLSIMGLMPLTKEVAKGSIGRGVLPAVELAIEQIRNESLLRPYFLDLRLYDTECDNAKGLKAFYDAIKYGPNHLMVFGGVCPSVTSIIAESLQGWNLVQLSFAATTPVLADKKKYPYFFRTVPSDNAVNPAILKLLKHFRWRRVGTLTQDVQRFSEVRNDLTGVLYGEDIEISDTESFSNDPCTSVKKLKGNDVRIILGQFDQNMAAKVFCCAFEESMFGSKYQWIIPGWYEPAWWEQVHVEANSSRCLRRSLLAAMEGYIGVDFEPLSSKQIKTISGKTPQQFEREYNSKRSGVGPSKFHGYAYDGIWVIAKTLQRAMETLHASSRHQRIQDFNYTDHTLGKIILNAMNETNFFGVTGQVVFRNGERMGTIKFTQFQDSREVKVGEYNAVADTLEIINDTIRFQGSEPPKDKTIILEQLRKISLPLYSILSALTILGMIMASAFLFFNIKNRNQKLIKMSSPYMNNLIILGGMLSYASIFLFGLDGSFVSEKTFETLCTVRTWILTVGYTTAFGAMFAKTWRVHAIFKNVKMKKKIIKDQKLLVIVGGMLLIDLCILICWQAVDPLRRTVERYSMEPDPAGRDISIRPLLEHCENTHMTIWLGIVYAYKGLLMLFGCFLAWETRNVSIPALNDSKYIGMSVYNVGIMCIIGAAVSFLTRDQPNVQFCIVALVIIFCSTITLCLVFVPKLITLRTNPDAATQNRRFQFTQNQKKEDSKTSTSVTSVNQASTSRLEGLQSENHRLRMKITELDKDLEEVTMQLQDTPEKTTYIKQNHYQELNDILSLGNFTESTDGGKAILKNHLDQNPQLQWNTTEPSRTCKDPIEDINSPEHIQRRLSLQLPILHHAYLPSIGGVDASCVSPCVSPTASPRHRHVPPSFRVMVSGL

For “GABAB receptor (heterodimer of GABAB1 and GABAB2), untagged and SNAP-tagged subunits in three combinations (from UniProt Q9Z0U4 20-960; O88871 41-940) (complex)”, in assay [1], the stoichiometry N (per diffusing complex) was in the range of 2 to 8.

Regarding “mGlu2 mutated to be locked in the inactive conformation (HA-ST-mGlu2-515NGlyc-L698C-L729C-F756D), cross-linked with CuP (from UniProt P31421 19-872) (receptor)”, the stoichiometry N (subunits/complex) in assay [2] turned out to be 2.3.
